These results are taken from publication PMC4701059 (Molecular microbiology, 2015).

The target in data set [1] is ComP(CD) (his6-ComP(CD)) (Bacillus subtilis, UniProt Q99027). Briefly: autophosphorylation with γ-32P-ATP, SDS-PAGE, phosphorimaging. As to conditions: 0.5 mM ATP; 20 mM MgCl2, pH 8-8.5, 24°C; labelled compound. The data set is classed as biochemical.
Data set [2] has as its target T1, Rap60 (Bacillus subtilis plasmid pTA1060, UniProt Q45456 2-375).
T1 sequence: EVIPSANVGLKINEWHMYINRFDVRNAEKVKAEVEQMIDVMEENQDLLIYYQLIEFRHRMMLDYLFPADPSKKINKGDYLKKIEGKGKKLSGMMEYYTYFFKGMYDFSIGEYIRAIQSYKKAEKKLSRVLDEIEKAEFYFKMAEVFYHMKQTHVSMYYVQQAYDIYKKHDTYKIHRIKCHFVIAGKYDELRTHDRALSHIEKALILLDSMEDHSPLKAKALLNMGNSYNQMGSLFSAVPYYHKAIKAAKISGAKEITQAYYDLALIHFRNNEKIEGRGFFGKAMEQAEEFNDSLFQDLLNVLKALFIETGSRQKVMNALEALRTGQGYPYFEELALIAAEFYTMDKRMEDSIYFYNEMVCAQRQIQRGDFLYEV
Briefly: EMSA. Background: In EMSA bound probe runs differently from free probe, usually more slowly.

The target of data set [3] is T2, ComA (Bacillus subtilis (genomic DNA; strain …, UniProt P14204 2-214).
T2 sequence: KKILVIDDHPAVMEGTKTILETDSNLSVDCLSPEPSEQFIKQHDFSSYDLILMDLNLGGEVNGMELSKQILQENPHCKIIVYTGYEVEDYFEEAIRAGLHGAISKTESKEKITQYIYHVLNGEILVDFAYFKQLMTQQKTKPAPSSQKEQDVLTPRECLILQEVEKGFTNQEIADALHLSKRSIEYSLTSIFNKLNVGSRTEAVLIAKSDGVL
Briefly: EMSA.

Data set [4] addresses T3, ComA;Rap60 (Bacillus subtilis (genomic DNA; strain …, UniProt P14204;Q45456 2-214;2-375, |).
T3 sequence 1: T2 sequence
T3 sequence 2: T1 sequence
Description: EMSA.

In data set [5] the target is T4, ComA;Rap60(N27A) (Bacillus subtilis (genomic DNA; strain …, UniProt P14204;Q45456 2-214;2-375, |N27A).
T4 sequence 1: T2 sequence
T4 sequence 2: T1 sequence with N26A
Description: EMSA.

In data set [6] the target is T5, ComA;Rap60(R26P) (Bacillus subtilis (genomic DNA; strain …, UniProt P14204;Q45456 2-214;2-375, |R26P).
T5 sequence 1: T2 sequence
T5 sequence 2: T1 sequence with R25P
Description: EMSA.

In data set [7] the target is T6, ComA;Rap60(R26A) (Bacillus subtilis (genomic DNA; strain …, UniProt P14204;Q45456 2-214;2-375, |R26A).
T6 sequence 1: T2 sequence
T6 sequence 2: T1 sequence with R25A
Description: EMSA.

Changes are numbered by the printed parent chain.

Sequence of ComP(CD) (his6-ComP(CD)) (Q99027 384-769): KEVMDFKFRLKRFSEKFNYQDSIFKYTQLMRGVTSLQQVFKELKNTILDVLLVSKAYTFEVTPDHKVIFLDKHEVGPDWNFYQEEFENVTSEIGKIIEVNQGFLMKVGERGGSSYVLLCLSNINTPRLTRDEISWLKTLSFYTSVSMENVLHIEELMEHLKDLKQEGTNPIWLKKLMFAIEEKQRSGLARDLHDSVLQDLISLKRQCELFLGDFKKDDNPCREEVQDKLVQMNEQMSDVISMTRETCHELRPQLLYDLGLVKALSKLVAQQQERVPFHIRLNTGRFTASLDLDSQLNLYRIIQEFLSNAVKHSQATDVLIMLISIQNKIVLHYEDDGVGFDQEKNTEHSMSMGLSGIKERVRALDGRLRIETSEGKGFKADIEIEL

As to `Nc1ncnc2c1ncn2[C@@H]1O[C@H](COP(=O)(O)OP(=O)(O)OP(=O)(O)O)[C@@H](O)[C@H]1O` [ATP], in data set [1], the “autophosphorylation with γ-32P-ATP, SDS-PAGE, phosphorimaging” value is “ComP autophosphorylation, ComP~P dephosphorylation, phosphotransfer from ComP to ComA”.

B1: minimal consensus ComA binding site (dsDNA)
DNA 1: TCATTGCGGCATCCCGCAAGAAACTTTGCGGTC
DNA 2: GACCGCAAAGTTTCTTGCGGGATGCCGCAATGA
Consider B1, for which the binding result in data set [2] is reported as “no binding”; in data set [3], “binds”; in data set [4], “binds”; in data set [5] it was “binds”; in data set [6] it was “binds”; in data set [7], “binds”.
